Test results published in article PMC11560701.
Where two headings read alike, the source gives them in different places.

What was measured:
[1] = target: H2A.Z/H3K9cme3 mono-nucleosome (208-bp 601 Widom DNA) (mouse | Xenopus laevis) (UniProt P0C0S6); assay: AUC
[2] = target: H2A.Z/H3K9cme3 mono-nucleosome (208-bp 601 Widom DNA) (mouse | Xenopus laevis) (UniProt P0C0S6); assay: AUC; remark: listed apart in the source

human HP1α (heterochromatin protein 1 alpha), full length, sequence (P45973 whole entry): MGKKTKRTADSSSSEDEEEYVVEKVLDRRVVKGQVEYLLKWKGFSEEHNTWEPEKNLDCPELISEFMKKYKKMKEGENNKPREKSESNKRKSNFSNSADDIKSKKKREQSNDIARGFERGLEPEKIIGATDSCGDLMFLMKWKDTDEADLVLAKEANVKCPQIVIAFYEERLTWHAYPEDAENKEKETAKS

“human HP1α (heterochromatin protein 1 alpha), full length (from UniProt P45973 1-191) (natural protein)” was tested, and the Kd [1] was 850 µM, the Kd [2] was 1 µM and the stoichiometry N (HP1α dimers per nucleosome) [2] was 2.
